Experimental data published in publication PMC10529061.

Molecular target: His6-tagged CHIP (C-terminus of Hsc70-interacting protein) (UniProt Q9UNE7)
Assay: BLI

UniProt Q9UNE7, sequence (Q9UNE7 whole entry): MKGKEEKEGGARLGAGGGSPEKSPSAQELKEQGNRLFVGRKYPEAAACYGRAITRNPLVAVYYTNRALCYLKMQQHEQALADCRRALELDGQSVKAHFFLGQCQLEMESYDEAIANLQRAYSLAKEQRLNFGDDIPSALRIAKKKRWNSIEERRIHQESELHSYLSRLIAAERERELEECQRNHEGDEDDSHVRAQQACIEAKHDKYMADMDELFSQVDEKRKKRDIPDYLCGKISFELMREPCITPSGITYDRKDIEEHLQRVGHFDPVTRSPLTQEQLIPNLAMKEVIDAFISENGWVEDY

Kd: 6.28 µM
Substance: E2 (UbcH5b), wild type (from UniProt P62837 1-147) (enzyme; other documents disagree on this pair)
